According to patent publication US20030095983A1 (ZymoGenetics, published 2003):

T1: glycoprotein hormone beta 5 (GPHB5), human, beta subunit of CGH (human, UniProt Q86YW7 25-130)
T1 construct: Secreted from CHO 180 cells
T1 sequence: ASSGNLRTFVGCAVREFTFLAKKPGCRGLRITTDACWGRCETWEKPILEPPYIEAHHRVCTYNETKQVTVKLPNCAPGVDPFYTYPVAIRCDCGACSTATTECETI


Assays:
[1] = target: TSH receptor (TSHR) on differentiated murine 3T3 L1 adipocytes (murine, UniProt P47750 22-764); assay: cell-based or functional assay
[2] = target: TSH receptor (TSHR) on primary human adipocytes (human, UniProt P16473 21-764); assay: cell-based or functional assay
[3] = target: T1, glycoprotein hormone beta 5 (GPHB5), …; assay: co-expression in CHO cells; secreted heterodimer

Sequence of TSH receptor (TSHR) on primary human adipocytes (P16473 21-764): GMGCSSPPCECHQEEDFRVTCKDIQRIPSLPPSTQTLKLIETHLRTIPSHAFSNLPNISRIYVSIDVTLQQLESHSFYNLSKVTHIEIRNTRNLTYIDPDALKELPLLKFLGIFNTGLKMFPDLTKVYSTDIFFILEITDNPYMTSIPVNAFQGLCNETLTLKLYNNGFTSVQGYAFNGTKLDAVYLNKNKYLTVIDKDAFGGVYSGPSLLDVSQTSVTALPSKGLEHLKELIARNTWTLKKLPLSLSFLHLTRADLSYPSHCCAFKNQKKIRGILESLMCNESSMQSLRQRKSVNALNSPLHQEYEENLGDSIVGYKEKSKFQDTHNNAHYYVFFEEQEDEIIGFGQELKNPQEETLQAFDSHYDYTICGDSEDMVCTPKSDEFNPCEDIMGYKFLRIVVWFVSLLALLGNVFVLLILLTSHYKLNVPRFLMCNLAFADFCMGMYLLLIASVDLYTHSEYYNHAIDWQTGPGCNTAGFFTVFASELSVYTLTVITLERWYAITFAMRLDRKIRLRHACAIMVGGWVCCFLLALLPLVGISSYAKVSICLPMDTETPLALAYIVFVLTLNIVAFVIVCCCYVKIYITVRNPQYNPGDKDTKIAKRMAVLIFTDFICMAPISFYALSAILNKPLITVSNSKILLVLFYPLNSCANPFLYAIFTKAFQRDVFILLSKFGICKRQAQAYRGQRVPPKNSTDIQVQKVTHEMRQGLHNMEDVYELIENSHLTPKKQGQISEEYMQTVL
Sequence of TSH receptor (TSHR) on differentiated murine 3T3 L1 adipocytes (P47750 22-764): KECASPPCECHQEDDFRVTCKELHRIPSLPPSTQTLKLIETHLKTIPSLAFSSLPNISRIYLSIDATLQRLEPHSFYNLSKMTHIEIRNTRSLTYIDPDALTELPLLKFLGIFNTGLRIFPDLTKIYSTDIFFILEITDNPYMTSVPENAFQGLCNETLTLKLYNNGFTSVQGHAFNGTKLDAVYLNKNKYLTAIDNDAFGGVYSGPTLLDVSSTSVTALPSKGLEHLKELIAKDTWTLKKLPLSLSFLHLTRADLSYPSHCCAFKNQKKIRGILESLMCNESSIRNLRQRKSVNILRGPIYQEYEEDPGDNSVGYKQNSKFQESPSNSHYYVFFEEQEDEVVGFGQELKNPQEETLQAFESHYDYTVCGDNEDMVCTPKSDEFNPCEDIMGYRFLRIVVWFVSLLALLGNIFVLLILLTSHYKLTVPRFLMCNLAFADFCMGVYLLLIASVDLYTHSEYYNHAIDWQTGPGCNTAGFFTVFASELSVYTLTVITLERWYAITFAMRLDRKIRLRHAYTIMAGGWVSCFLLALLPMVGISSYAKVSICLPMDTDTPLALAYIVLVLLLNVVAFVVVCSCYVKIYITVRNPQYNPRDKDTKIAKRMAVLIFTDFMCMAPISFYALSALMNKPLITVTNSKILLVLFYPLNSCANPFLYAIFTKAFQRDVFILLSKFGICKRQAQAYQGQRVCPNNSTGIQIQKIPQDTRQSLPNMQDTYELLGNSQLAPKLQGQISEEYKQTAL

Row | induction of luciferase expression (CRE-luciferase reporter, cAMP) [1] [fold] | induction of the reporter gene (CRE-luciferase reporter, cAMP) [2] [fold] | binding result [3] | Binder
1 | 27 | 14 |  | corticotroph-derived glycoprotein hormone (CGH), human recombinant, non-covalent heterodimer of GPHA2 and GPHB5 (ligand) chain 1: QEAVIPGCHLHPFNVTVRSDRQGTCQGSHVAQACVGHCESSAFPSRYSVLVASGYRHNITSVSQCCTISGLKKVKVQLQCVGSRREELEIFTARACQCDMCRLSRY chain 2: ASSGNLRTFVGCAVREFTFLAKKPGCRGLRITTDACWGRCETWEKPILEPPYIEAHHRVCTYNETKQVTVKLPNCAPGVDPFYTYPVAIRCDCGACSTATTECETI
2 |  |  | binds | glycoprotein hormone alpha2 (GPHA2), human, alpha subunit of CGH (ligand, Secreted from CHO 180 cells; also called Zsig51) QEAVIPGCHLHPFNVTVRSDRQGTCQGSHVAQACVGHCESSAFPSRYSVLVASGYRHNITSVSQCCTISGLKKVKVQLQCVGSRREELEIFTARACQCDMCRLSRY
